From article PMC4748334 come the findings set out here.

This experiment concerns the target Francisella tularensis polyphosphate kinase 2 (FtPPK2) (Francisella tularensis subspecies tularensis SCHU S4). Nature of the experiment: crystal structure.

As usually defined, the stoichiometry N is a count of units in the complex or per binding partner. Substance “Francisella tularensis polyphosphate kinase 2 (FtPPK2) (enzyme)” registered a stoichiometry N of 4.
